Data published in patent EP1167527A9 (Euroscreen S.A., dated 2002).

Key:
chemokine receptor CCR1 [1] = molecular target: T1, chemokine receptor CCR1 (human, UniProt P32246 1-355); experiment: radioligand competition binding, CCR1
T1 construct: whole, on cells
T1 sequence (looked up): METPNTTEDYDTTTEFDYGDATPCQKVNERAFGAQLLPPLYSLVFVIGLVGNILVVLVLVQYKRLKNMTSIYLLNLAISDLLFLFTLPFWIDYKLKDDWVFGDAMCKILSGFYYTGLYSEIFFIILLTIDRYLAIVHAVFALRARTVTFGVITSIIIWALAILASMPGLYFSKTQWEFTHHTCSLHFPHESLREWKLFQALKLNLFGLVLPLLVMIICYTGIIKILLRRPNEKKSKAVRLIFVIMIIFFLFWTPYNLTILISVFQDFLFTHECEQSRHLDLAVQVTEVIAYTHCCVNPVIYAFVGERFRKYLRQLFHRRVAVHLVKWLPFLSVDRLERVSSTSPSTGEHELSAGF

chemokine receptor CCR1 [2] = molecular target: T1, chemokine receptor CCR1; experiment: cell-based or functional assay
[3] = molecular target: T2, chemokine receptor 5 (CCR5; AC P51681) (human, UniProt P51681 1-352); experiment: cell-based or functional assay
T2 sequence (P51681 whole entry, one chain of several): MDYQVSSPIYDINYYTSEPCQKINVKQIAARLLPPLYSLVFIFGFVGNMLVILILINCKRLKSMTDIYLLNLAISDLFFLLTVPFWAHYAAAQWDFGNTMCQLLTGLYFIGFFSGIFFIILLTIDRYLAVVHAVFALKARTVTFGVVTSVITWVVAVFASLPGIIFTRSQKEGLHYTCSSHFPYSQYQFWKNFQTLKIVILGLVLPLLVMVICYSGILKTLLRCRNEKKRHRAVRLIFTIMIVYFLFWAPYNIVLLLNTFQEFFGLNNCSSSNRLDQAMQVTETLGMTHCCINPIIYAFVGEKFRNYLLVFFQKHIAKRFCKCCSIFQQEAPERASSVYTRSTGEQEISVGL

chemokine receptor CCR3 [4] = molecular target: T3, chemokine receptor CCR3 (human, UniProt P51677 1-355); experiment: cell-based or functional assay
T3 sequence (looked up): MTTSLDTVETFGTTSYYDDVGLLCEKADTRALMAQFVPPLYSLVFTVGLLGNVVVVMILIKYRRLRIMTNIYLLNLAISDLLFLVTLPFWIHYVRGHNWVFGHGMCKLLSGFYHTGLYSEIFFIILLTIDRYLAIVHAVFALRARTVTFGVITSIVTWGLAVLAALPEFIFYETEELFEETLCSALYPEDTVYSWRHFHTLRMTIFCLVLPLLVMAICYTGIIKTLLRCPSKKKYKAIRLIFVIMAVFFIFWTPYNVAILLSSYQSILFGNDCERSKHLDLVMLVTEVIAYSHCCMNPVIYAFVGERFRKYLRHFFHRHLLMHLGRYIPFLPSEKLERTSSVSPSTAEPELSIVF

chemokine receptor CCR1 [5] = molecular target: T1, chemokine receptor CCR1; experiment: radioligand competition, 125I-Rantes tracer, CCR1
chemokine receptor CCR3 [6] = molecular target: T3, chemokine receptor CCR3; experiment: radioligand competition, 125I-Eotaxin tracer, CCR3
[7] = molecular target: T2, chemokine receptor 5 (CCR5; AC P51681); experiment: radioligand competition, 125I-MIP 1-alpha tracer, CCR5
chemokine receptor CCR1 [8] = molecular target: T1, chemokine receptor CCR1; experiment: radioligand competition, 0.1 nM 125I-Rantes tracer, crude membranes of CHO-K1 cells expressing CCR1
chemokine receptor CCR3 [9] = molecular target: T3, chemokine receptor CCR3; experiment: radioligand competition, 0.1 nM 125I-Eotaxin tracer, crude membranes of CHO-K1 cells expressing CCR3
[10] = molecular target: T2, chemokine receptor 5 (CCR5; AC P51681); experiment: radioligand competition, 0.1 nM 125I-MIP 1-alpha tracer, crude membranes of CHO-K1 cells expressing CCR5

B1: full size human chemokine HCC-1, amino acid residues 1-74 (ligand)
chain: TKTESSSRGPYHPSECCFTYTTYKIPRQRIMDYYETNSQCSKPGIVFITKRGHSVCTNPSDKWVQDYIKDMKEN
notes: 74-residue chemokine, Mr 8673; Swiss-Prot Q16627 is printed for the HCC-1 precursor; also called full-size HCC-1; full length HCC-1
- Ki (chemokine receptor CCR1 [1]): 100 nM

B2: RANTES (ligand, UniProt P13501 24-91, looked up)
chain: SPYSSDTTPCCFAYIARPLPRAHIKEYFYTSGKCSNPAVVFVTRKNRQVCANPEKKWVREYINSLEMS
- functional aequorin-based assay, EC50 (chemokine receptor CCR1 [2]): 6.3 nM
- aequorin assay (intracellular calcium), CHO-K1 cells expressing CCR5, EC50 [3]: 2.4 nM

B3: MIP 1-alpha (ligand, UniProt P10147 24-92, looked up)
chain: SLAADTPTACCFSYTSRQIPQNFIADYFETSSQCSKPGVIFLTKRSRQVCADPSEEWVQKYVSDLELSA
- aequorin assay (intracellular calcium), CHO-K1 cells expressing CCR5, EC50 [3]: 3.3 nM

B4: processed human chemokine PHC-1 (ligand)
chain: GPYHPSECCFTYTTYKIPRQRIMDYYETNSQCSKPGIVFITKRGHSVCTNPSDKWVQDYIKDMKEN
notes: Purified from human hemofiltrate or made by tryptic digestion of HCC-1 (1-74); also called HCC-1[9-74]; HCC-1, residues 9-74
- functional aequorin-based assay, EC50 (chemokine receptor CCR1 [2]): 2.8 nM
- functional aequorin-based assay, EC50 (chemokine receptor CCR3 [4]): 78 nM
- aequorin assay (intracellular calcium), CHO-K1 cells expressing CCR5, EC50 [3]: 4.8 nM
- Ki (chemokine receptor CCR1 [5]): 0.023 nM
- Ki (chemokine receptor CCR3 [6]): 2.7 nM
- Ki [7]: 0.04 nM
- IC50 (chemokine receptor CCR1 [8]): 2.3 nM
- IC50 (chemokine receptor CCR3 [9]): 78 nM
- IC50 [10]: 0.04 nM
